Results published in the DeepSol protein solubility set.

Experiment: soluble on expression in E. coli; label from the status in PepcDB or PDB records

Row | Sequence | soluble on expression in E. coli
1 | NISYFSIGSGTPIIFLHGLSLDKQSTCLFFEPLSNVGQYQRIYLDLPGMGNSDPISPSTSDNVLETLIEAIEEIIGARRFILYGHSYGGYLAQAIAFHLKDQTLGVFLTCPVITADHSKRLTGKHINILEEDINPVENKEYFADFLSMNVIINNQAWHDYQNLIIPGLQKEDKTFIDQLQNNYSFTFEEKLKNINYQFPFKIMVGRNDQVVGYQEQLKLINHNENGEIVLLNRTGHNLMIDQREAVGFHFDLFLDE | not soluble
2 | NKNFTWTTELTVSRNKNKVEKLPNTVQGFDTRNLTSIQEGYSLYSYWVYNQTGVNSQTGAIEIEDVNKDGKITTADRKIMGSVFPKLFGGFNNKFTYKGIDLGIFFIYSYGNKTWNQNEALGEQGGTLGDNRVLMAGQLDRWTTPGQETMVPKLTAANYQYFEVSRFLEDASFIRLRSLTLGYTLPKKWSSAVKTEKIRFYFTGTNLLLITKYTGSDPESNLGQGNLQGYDYDTPPQPRTIQFGLNLTL | not soluble
3 | NLSSSESQESTGQHQVTVAAVQGNVPRLGLDFNAQRRAVLANHVQETRKLTEQVDFIVWPENSSDVDPFADVRARNLINSAVASVQAPIVVGTVTTDEVGARNAMVVFDPETGEGDWHVKKFLQPFGEWMPWRDFFRKFSSLVDLAGDFKPGEGSGVVRVHAAQLGETVKLGISTCYEVAFDQAGRDAVLAGAQILATPTNNATFGFTDMTYQQLAMSRMRAIELDRAVVVAATSGVSAIVTPRGEVLQHSKIFESATLVQSLPLKETITFSARYGTLLE | not soluble
4 | NTLTSQIEQLQSLAHELLYLGVDGAPIYTDHFRQLNKEVLEQSDALYPQRGATPEEEANICLALLMGYNATIYNQGDKEEKKQVVLNRCWDVLDQLPATLLKCQLLTYCYGEVFE | not soluble
5 | PAAGPSRVRQNFHPDSEAAINRQINLELYASYVYLSMAYYFSRDDVALNNFSRYFLHQSREETEHAEKLMRLQNQRGGRIRLQDIKKPEQDDWESGLHAMECALLLEKNVNQSLLELHALASDKGDPHLCDFLETYYLNEQVKSIKELGDHVHNLVKMGAPDAGLAEYLFDTHTLGNENKQN | soluble
6 | PDLSTWNLTIPQGRPAITISTSQLQRDYRSDYFQRTADGIRFWVPVNGSHTRNSEFPRSELRETLSSGRPYNWRYARADNWLEATLRIEAVPSTRRMIIGQIHSDGSNSGQAAPLVKLLYQLRLDQGRVQALVRERPDDGGTRAYTLMDGIPLGQPFSYRIGVSRSGLLSVSVNGSALEQQLDPQWAYQGLYFKAGLYLQDNRGPSSEGGRATFSELRVSHQ | soluble
7 | PESPGGRGIKPDTCPAPGPRSPLQLPLAPDAESGSSGRRPGEPRDPLKLQQLQNQIRLEQEAGARQPPPAPRSAPPSPPFPPPPAFPELAACTPPASPEPMSALASRSAPAMQSSGSFNYARPKQFIAAQNLGPASGHGTPASSPSSSSLPSPMSPTPRQFGRAPVPPFAQPFGAEPEAPWGSSSPSPPPPPPPVFSPTAAFPVPDVFPLPPPPPPLPSPGQASHCSSPATRFGHGQTPAAFLSALLPSQPPPAAVNALGLPKGVTPAGFPKKASRTARIASDEEIQGTKDAVIQDLERKLRFKEDLLNNGQPRLTYEERMARRLLGADSATVFNIQEPEEETANQEYKVSSCEQRLISEIEYRLERSPVDESGDEVQYGDVPVENGMAPFFEMKLKHYKIFEGMPVTFTCRVAGNPKPKIYWFKDGKQISPKSDHYTIQRDLDGTCSLHTTASTLDDDGNYTIMAANPQGRISCTGRLMVQAVNQRGRSPRSPSGHPHVRRPRSRSRDSGDENEPIQERFFRPHFLQAPGDLTVQEGKLCRMDCKVSGLPTPDLSWQLDGKPVRPDSAHKMLVRENGVHSLIIEPVTSRDAGIYTCIATNRAGQNSFSLELVVAAKEAHKPPVFIEKLQNTGVADGYPVRLECRVLGVPPPQIFWKKENESLTHSTDRVSMHQDNHGYICLLIQGATKEDAGWYTVSAKNEAGIVSCTARLDVYTQWHQQSQSTKPKKVRPSASRYAALSDQGLDIKAAFQPEANPSHLTLNTALVESEDL | soluble
8 | PEYSLFVGDLTPDVDDGMLYEFFVKVYPSCRGGKVVLDQTGVSKGYGFVKFTDELEQKRALTECQGAVGLGSKPVRLSVAIPKASRVKPVE | soluble
9 | PFINIKLVPENGGPTNEQKQQLIEGVSDLMVKVLNKNKASIVVIIDEVDSNNYGLGGESVHHLRQKN | soluble
10 | PFSWMRYIVISRKDLEEDGREILIHEMAHIQNRHSIDLLVADICIFFQWFNPGIWLLKQELQNIHEYEADETVINEGIDAKDYQLLLI | not soluble
11 | PHSPLAEGRREVAKVLTMASEALTQVSTAMRTGDVDGIREALRKARGSQAAINAMIAAAKSGQEEVAVSPFLWSSKARVRSFVRILHPVDNAMRNTRVLARRAQVLIEDGDEVSEAQIQLIDDLVSVTSAVAAIYDRRGAASEAAEIPELVRTLQTMAARAGLSVAEGKVLSAQVVLAQTRSIIVDLLQVCGMSRASAVASLALTSESPAYPSEIRDDPNH | soluble
12 | PISSEQKQLISQLTDLGYSFDGLQTGYPGGEPDWHYVKELSGIEEKDLIKSFSKKGKPLVKKAKTFGIKLKKLKRDELSIFKEITSATSDRREYSDKSLDYYQDFYDAFGDNADFMVATLNFQDYFDHLESNQAKLRARIVKLQADLETNPTSEKKQNQLRELSSQLETFDVRKGEATAFIDKYGQEDIVLAGSLFVYTPQEAVYLFSGSYPEFNKFYAPALLQEYVMTQAIKRGIGFYNFLGIMGIFDGSDGVLRFKQNFNGYIVRKMGTFRYYPQPLKYKAIQGVKKLLGRN | not soluble
13 | PIVLFPGQQATLSPQGISSPSPFDHTAITAWLRNQLVFYDTPLAEVVDTLNRHRHGRIFITNQKLKALKVSGVFSTDEPDTALDVMINTLPIHLLRLTDYLVLI | not soluble
14 | PKEQSMKIVVIGGTGLIGSNVVNRLRRDGHETVAASPGTGVNTITGEGLAQALDGAQVVVDVANSPSFEDQAVMAFFETSGRTLLAAEAAAGVTHHLALSVVGTDRLADSGYFRAKVAQEALIKASKVPYTILRATQFFE | not soluble
15 | PKYTIVDKETCIACGACGAAAPDIYDYDEDGIAYVTLDDNQGIVEVPDILIDDMMDAFEGCPTDSIKVADEPFDGDPNKFE | soluble
16 | PLSEAELALFDPYSKEESTGPSPTHTGELAAIEVESKRLDQEPWEPGGQEEEEAEDGEPAPAYLGQATELITQALRNEKAGAYAAALQGYQDGVHILLQGVSGDPSPARREGVKKKAAEYLKRAEMLHTHLP | soluble
17 | PMFEAAYDFPGSGSPSELPLKKGDVIYITREEPSGWSLGKLLDGSKEGWVPTAYMKPH | soluble
18 | PNAIVNRSIPEGVDVFEISGPLFFGAASKFKDAMHVVEKAPSIRILRMRKVMSIDATGLNMLKELFNDCRKSGTTLILSGVHTQPLFAMQQYGLADEIGEENIFGNIDDALDRARSLLGLPVQGRPAGF | not soluble
19 | PNEKFCFEGFLPQKKGRMTKLKSLVDEHRTMVFYESPHRLLKTLTQFAEYFGPERQVSVSREISKIHEETVRGTLSELIEHFTATDPRGEIVIVLAGIDD | not soluble
20 | PNGDKVHAWYWQSPRRDAPTVLYLHGARWNLNGSAFRMEGWTRMGYSMLAIDYRGFGQSTPLLPSEQSASQDAAAALQELARRQPDPARRFIYGHSLGGAIAIDLAARPDLPPFAGLIVESSFTSIGAMLGTMKWGWVPGATLLVTQPFASVDKLAALTTPMLLLHGTADRVVPHTMSDELYRAAQQVPADLKRLVKIEGASHSGAIRSGRIYEDAVADFVRDAGRGYAGRQGAPTPLTASRPGT | not soluble
21 | PNRSISPSALQDLLRTLKSPSSPQQQQQVLNILKSNPQLMAAFIKQRTAKYVANQPGMQ | soluble
22 | PPIILQGPANQTLAVDGTALLKCKATGDPLPVISWLKEGFTFPGRDPRATIQEQGTLQIKNLRISDTGTYTCVATSSSGETSWSAVLDVTESG | soluble
23 | PQDAVIWLGAEKTGLKLTNSSNTFEGVIDGVDITVTKAQTSGETAIGLGIGADDEATKEQLNKFVDAYNTLISTIDEHTQIGSEDKKRGVLASDPTMRSIESQLSSLVRGEHGGMRLSEIGVTLDRHGKLKVDQEKFAEAQKNNSAGLEAMFNGDGALLDSMDAMAEPFLKFSSGAFKSRKEALQANLDRLSDKQTTLERKYDMSYKRYLKQFTQMNTLMTQMNQ | not soluble
24 | PREEVARIHASSGTTGKPTVVGYTKNDLKVFAEVVARSLAAAGARPGMMLHNAYGYGLFTGGLGLHGGAEALGMTVVPVSGGMTERQVMLIQDFRPEVISCTPSYAQTLAEEFRKRGVSPEELSLEYAVLGAEPWTEAIRKQVDEGLGVKSTNIYGLSEIIGPGVSNECVEERQGSHI | not soluble
25 | PREFVLRPAPQGRTVRCRLTRDKKGMDRGMYPSYFLHLDTEKKVFLLAGRKRKRSKTANYLISIDPTNLSRGGENFIGKLRSNLLGNRFTVFDNGQNPQRGYSTNVASLRQELAAVIYETNVLGFRGPRRMTVIIPGMSAENERVPIRPRNASDGLLVRWQNKTLESLIELHNKPPVWNDDSGSYTLNFQGRVTQASVKNFQIVHADDPDYIVLQFGRVAEDAFTLDYRYPLCALQAFAIALSSFD | soluble
26 | PRLTRRLTGFLPQEIKSIDTMIPLLSRALWNKHQVKKFNKAEDFQDRFIDHVETTLARSLYNCDDMVAYEAASMSIRDNLVIDWNKTQQKFTTRDPKRVYYLSLEFLMGRALDNALINMKIEDPEDPAASKGKPREMIKGALDELGFKLEDVLDQEPDAGLGNGGLGRLAACFVDSMATEGIPAWGYGLRYEYGIFAQKIIDGYQVETPDYWLNSGNPWEIERNEVQIPVTFYGYVDRPEGGKTTLSASQWIGGERVLAVAYDFPVPGFKTSNVNNLRLWQARPTTEFDLNKFNNGDYKNSVAQQQRAESITAVLYPNDNFAQGKELRLKQQYFWCAASLHDILRRFKKSKRPWTEFPDQVAIQLNDTHPTLAIVELQRVLVDLEKLDWHEAWDIVTKTFAYTNHTVMQEALEKWPRRLFGHLLPRHLEIIYDINWFFLEDVAKKFPKDVDLLSRISIIEENSPERQIRMAFLAIVGSHKVNGVVELHSELIKTTIFKDFIKFYGPSKFVNVTNGITPRRWLKQANPSLAKLISETLNDPTEEYLLDMAKLTQLEKYVEDKEFLKKWNQVKLNNKIRLVDLIKKENDGVDIINREYLDDTLFDMQVKRIHEYKRQQLNVFGIIYRYLAMKNMLKNGASIEEVARKYPRKVSIFGGKSAPGYYMAKLIIKLINCVADIVNNDESIEHLLKVVFVADYNVSKAEIIIPASDLSEHISTAGTEASGTSNMKFVMNGGLIIGTVDGANVEITREIGEDNVFLFGNLSENVEELRYNHQYHPQDLPSSLDSVLSYIESGQFSPENPNEFKPLVDSIKYHGDYYLVSDDFESYLATHELVDQEFHNQRSEWLKKSVLSLANVGFFSSDRCIEEYSDTIWNVEPVT | soluble
27 | PRNQMPRIHASSGTTGKPTVVGYTKTDLDNWANLMARSMVGAGASPDDIVHNAYGYGLFTGGLGAHYGAERLGCTVVPASGGGTERQVQLIVDFGANVLCCTPSYALNIAEVAEQMGVSLKDAPLRVGLFGAEPWSDAMRRDLEARLGIKAVDVYGLSEIMGPGVACECH | not soluble
28 | PSRPVRPNNRCFSCNKKVGVMGFKCKCGSTFCGSHRYPEKHECSFDFKEVG | soluble
29 | PTNIHKIHEVQKKLQEEVSIVLIDIADIIVNPKKENGYSRDLYTLNSLIDSSISETYDNINNTLLSDTRFFLEHMDIIKSQRDILENLYSYVSQLNSTPPQAHILSAFIHKIGYTEFEAETGNLLLEELKRLMISMKNQPLPVDRTEFENRAILFLCLTELKQFLVNRKHAQML | soluble
